Square brackets hold non-standard residues; d marks the D form. Ends that are not written are not given here. * marks the point of attachment. Phe(4-Cl) = N[C@@H](Cc1ccc(Cl)cc1)C(=O)O; 2Nal = N[C@@H](Cc1ccc2ccccc2c1)C(=O)O; d2Nal = N[C@H](Cc1ccc2ccccc2c1)C(=O)O; Fmoc = O=C(OCC1c2ccccc2-c2ccccc21)*; 2Thi = N[C@@H](Cc1cccs1)C(=O)O; Cha = N[C@@H](CC1CCCCC1)C(=O)O; d2Thi = N[C@H](Cc1cccs1)C(=O)O; dCha = N[C@H](CC1CCCCC1)C(=O)O
Legend:
[1] = target: glutathione-S-transferase-BIR2 fusion protein (GST-BIR2) (human) (UniProt P98170); assay: fluorescence polarization; 400 nM rhodamine-SMAC, GST-BIR2 0.05 to 20 µM
[2] = target: GST-BIR3RING (human) (UniProt P98170); assay: fluorescence polarization; 400 nM rhodamine-SMAC, GST-BIR3RING 0.02 to 6 µM
[3] = target: T1, GST-XIAP (human, UniProt P98170 1-497); assay: cell-based or functional assay
[4] = target: T1, GST-XIAP; assay: cell-based or functional assay; remark: listed apart in the source
[5] = target: full length XIAP (human, UniProt P98170 1-497); assay: cell-based or functional assay
Sequence of full length XIAP (P98170 whole entry): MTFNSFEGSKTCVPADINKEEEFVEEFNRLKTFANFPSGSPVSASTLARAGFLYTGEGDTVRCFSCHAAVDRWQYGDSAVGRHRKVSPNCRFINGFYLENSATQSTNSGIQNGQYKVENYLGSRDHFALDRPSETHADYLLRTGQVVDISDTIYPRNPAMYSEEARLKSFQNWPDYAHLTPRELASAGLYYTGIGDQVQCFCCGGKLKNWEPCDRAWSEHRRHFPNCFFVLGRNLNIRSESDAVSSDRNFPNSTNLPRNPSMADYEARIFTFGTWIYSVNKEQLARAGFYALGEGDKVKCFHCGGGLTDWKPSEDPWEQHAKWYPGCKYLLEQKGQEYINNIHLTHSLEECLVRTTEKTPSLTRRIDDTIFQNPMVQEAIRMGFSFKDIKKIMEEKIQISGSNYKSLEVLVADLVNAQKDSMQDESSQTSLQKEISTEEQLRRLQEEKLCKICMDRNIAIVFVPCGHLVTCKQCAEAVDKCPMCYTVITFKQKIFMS

T1 sequence (P98170 whole entry): as above
Sequence of glutathione-S-transferase-BIR2 fusion protein (GST-BIR2) (human) (P98170 124-240): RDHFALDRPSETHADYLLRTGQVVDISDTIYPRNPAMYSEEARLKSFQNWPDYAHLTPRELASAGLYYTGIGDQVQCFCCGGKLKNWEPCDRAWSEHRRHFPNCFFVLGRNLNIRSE
Sequence of GST-BIR3RING (human) (P98170 243-497): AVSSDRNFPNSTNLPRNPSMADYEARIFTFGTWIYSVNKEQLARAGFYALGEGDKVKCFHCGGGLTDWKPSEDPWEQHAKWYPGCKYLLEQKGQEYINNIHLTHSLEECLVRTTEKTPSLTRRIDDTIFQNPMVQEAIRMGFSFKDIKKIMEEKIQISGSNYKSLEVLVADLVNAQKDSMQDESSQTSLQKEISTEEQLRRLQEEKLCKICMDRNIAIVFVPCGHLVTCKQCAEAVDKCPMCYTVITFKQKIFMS

Molecule: rhodamine labeled SMAC (rhodamine-SMAC) (peptide)
- Kd [1]: 20 µM
- Kd [2]: 0.28 µM

B1: SMAC peptide (H-Ala-Val-Pro-Ile-Ala-Gln-Lys-NH2) (peptide)
peptide: H-AVPIAQK-NH2
- Vmax(mix + casp3 + XIAP)/Vmax(casp3 + XIAP) [3]: 3.8 ratio

B2: 1332/1352-1 (peptide)
peptide: AWW[2Thi]
modifications: not fully specified
- ratio of Vmax for hydrolysis of Ac-DEVD-AFC in the presence and absence of the species [4]: 2.4 ratio

B3: 1332/1352-47 (peptide)
peptide: A[dW]W[2Thi]
- ratio of Vmax for hydrolysis of Ac-DEVD-AFC in the presence and absence of the species [4]: 2.4 ratio

B4: 1332-41 (peptide)
peptide: [Cha][d2Nal]W[2Thi]
- ratio of Vmax for hydrolysis of Ac-DEVD-AFC in the presence and absence of the species [4]: 2.4 ratio

B5: 1352-6 (peptide)
peptide: A[dW]W[2Thi]
- ratio of Vmax for hydrolysis of Ac-DEVD-AFC in the presence and absence of the species [4]: 2.4 ratio

B6: 1352-66 (peptide)
peptide: [2Nal][dCha]W[dW]
- ratio of Vmax for hydrolysis of Ac-DEVD-AFC in the presence and absence of the species [4]: 2.4 ratio

B7: 1352-72 (peptide)
peptide: [2Nal][d2Thi][dF][dW]
- ratio of Vmax for hydrolysis of Ac-DEVD-AFC in the presence and absence of the species [4]: 2.4 ratio

B8: TPI 792-33 (peptide)
peptide: [2Thi][2Nal][Phe(4-Cl)]K(Fmoc)
- EC50 (amount of compound necessary to restore caspase-3 activity to 50% of Vmax) [5]: 24 µM
- Relative Potency (against SMAC AVPI tetrapeptide) [5]: 5.2 fold

B9: TPI 792-35 (peptide)
peptide: [2Thi][2Nal][dK](Fmoc)K(Fmoc)
- EC50 (amount of compound necessary to restore caspase-3 activity to 50% of Vmax) [5]: 51 µM
- Relative Potency (against SMAC AVPI tetrapeptide) [5]: 2.5 fold

From US20110183358A1 (published 2011)
